{"source": "the supplement of paper PMC12042874", "note": "± gives the uncertainty stated by the source.", "data": [{"assay": "amyloid nucleation score (Sup35N fusion, yeast selection) (log enrichment); library NNK3; higher = more nucleation; inactive = no reads after selection", "outline": "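Growth for 7 days at 30°C on medium lacking adenine and uracil followed a 24-hour induction with 100 μM copper sulfate of psi-negative yeast expressing peptides of 20 random codons fused to Sup35N. Input and output plasmid inserts were sequenced with Illumina, and sequences with under 100 input reads were excluded. Nucleation score is the DiMSum log enrichment of output over input reads, centred on the mode score of non-aggregating sequences.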", "values": [{"substance": "AITGFNRKVDYLGSGECVEH", "amyloid nucleation score": "inactive"}, {"substance": "ICPWDIQRINMLMGRVDWLR", "amyloid nucleation score": "inactive"}, {"substance": "YCRCLCMLYG", "amyloid nucleation score": "inactive"}, {"substance": "YLGGFLWVWKQFSSCRLVQY", "amyloid nucleation score": "-0.057 ± 0.78"}, {"substance": "CFPASCIQ", "amyloid nucleation score": "inactive"}, {"substance": "YVIMAFLAV", "amyloid nucleation score": "inactive"}, {"substance": "TWDLY", "amyloid nucleation score": "inactive"}, {"substance": "LDSADTNDHPFSWYNGMLGT", "amyloid nucleation score": "inactive"}, {"substance": "FMGDRLKEAGDRTLYDQKVG", "amyloid nucleation score": "inactive"}, {"substance": "FLRFWARSNPGTWLIVHGMG", "amyloid nucleation score": "-0.69 ± 1.4"}, {"substance": "LNFVWNFNWLYWFLYGIERV", "amyloid nucleation score": "inactive"}, {"substance": "NFPGLTASMIKCGGNQCYVG", "amyloid nucleation score": "inactive"}, {"substance": "MNLFFGFWLLLSAFVSHQVC", "amyloid nucleation score": "inactive"}, {"substance": "VMFRCN", "amyloid nucleation score": "inactive"}, {"substance": "GPPCDFCIRVSVCYTGSVNW", "amyloid nucleation score": "0.466 ± 0.39"}, {"substance": "RDCCYLTFALVPSHGLLKVK", "amyloid nucleation score": "inactive"}, {"substance": "HPTFHSHDRGR", "amyloid nucleation score": "inactive"}, {"substance": "ISRLLPPWNNRHIFSFVYLS", "amyloid nucleation score": "inactive"}, {"substance": "TFVKSLVGGFTRNLVFLAIL", "amyloid nucleation score": "inactive"}, {"substance": "LSFIISCNYTINNNMWV", "amyloid nucleation score": "2.91 ± 0.077"}, {"substance": "QHSFVNSIFSSLGTLRKNLL", "amyloid nucleation score": "inactive"}, {"substance": "GGMGSLCSTREGMDWCPRGY", "amyloid nucleation score": "inactive"}, {"substance": "QLRACPWYSEVFIEI", "amyloid nucleation score": "inactive"}, {"substance": "LRMSTSGIPYYMSGMSYYNI", "amyloid nucleation score": "inactive"}, {"substance": "MCFTLIKLLIQWKREDQIDE", "amyloid nucleation score": "1.07 ± 0.096"}, {"substance": "GTMSNYPNGFSMSSSYFSTY", "amyloid nucleation score": "inactive"}, {"substance": "SYTFVCRPTFYVCFCGSMCF", "amyloid nucleation score": "2.45 ± 0.065"}, {"substance": "ASEFKTSWWNV", "amyloid nucleation score": "-0.549 ± 0.68"}, {"substance": "SIINLDLTAGHRYFYSSRSR", "amyloid nucleation score": "2.11 ± 0.071"}, {"substance": "LHIGLNS", "amyloid nucleation score": "inactive"}, {"substance": "RGRMLDHGSS", "amyloid nucleation score": "inactive"}, {"substance": "AVSLGVTRSKIRLASKVRVD", "amyloid nucleation score": "inactive"}, {"substance": "RVMCRFIVRSLYAPDSHSLT", "amyloid nucleation score": "1.54 ± 0.073"}, {"substance": "TPVTGQQWNCFCTILHSE", "amyloid nucleation score": "2.52 ± 0.08"}, {"substance": "VVSDTKYVVVEWYTCGQSSD", "amyloid nucleation score": "inactive"}, {"substance": "VNCLLSRWCGRHA", "amyloid nucleation score": "inactive"}, {"substance": "NIWVQ", "amyloid nucleation score": "inactive"}, {"substance": "HWIISYQAGCFHLNTFKIMY", "amyloid nucleation score": "inactive"}, {"substance": "GGVHDSLNIYGFRYGLRKGV", "amyloid nucleation score": "inactive"}, {"substance": "SQVGMSPYRSCSINKWCPGI", "amyloid nucleation score": "inactive"}, {"substance": "NMVTYTMIWLWMSMAAPS", "amyloid nucleation score": "inactive"}, {"substance": "YFRNHSRVDDLDGGRRDVFR", "amyloid nucleation score": "inactive"}, {"substance": "MFEYLWEENMSLIYSKVDCG", "amyloid nucleation score": "inactive"}, {"substance": "GLNMVWFVHLSVNV", "amyloid nucleation score": "inactive"}, {"substance": "WKGPNRQSMLHGLPLYIYQI", "amyloid nucleation score": "-0.305 ± 0.66"}, {"substance": "GSSRPVVSLTSDLRRCVGKD", "amyloid nucleation score": "inactive"}, {"substance": "GLITWT", "amyloid nucleation score": "inactive"}, {"substance": "LCRLPLDQTSKPIVTTYAGR", "amyloid nucleation score": "inactive"}, {"substance": "AYNGK", "amyloid nucleation score": "inactive"}, {"substance": "VIRSNYWHTLNWLQQNKSRG", "amyloid nucleation score": "inactive"}, {"substance": "VTCPNFQKIYRQGCYGGFDT", "amyloid nucleation score": "inactive"}, {"substance": "MHSGFNRFSTYCRKVGGSYR", "amyloid nucleation score": "inactive"}, {"substance": "LYPFYFYA", "amyloid nucleation score": "inactive"}, {"substance": "VKYDDSWYDDWHIYNVYRCK", "amyloid nucleation score": "inactive"}, {"substance": "FWKACTCI", "amyloid nucleation score": "inactive"}, {"substance": "FRFASYRSYLIVMP", "amyloid nucleation score": "inactive"}, {"substance": "FKRGTCISSSNYNIYCYWKC", "amyloid nucleation score": "inactive"}, {"substance": "YNSIMFNGW", "amyloid nucleation score": "inactive"}, {"substance": "ALLCRMGRVRWPVSHEGNVC", "amyloid nucleation score": "inactive"}, {"substance": "SNSLV", "amyloid nucleation score": "inactive"}, {"substance": "LLKCYRPFSVFIYFNVLASG", "amyloid nucleation score": "inactive"}, {"substance": "NCMTLCLIDIRYSFENFFSF", "amyloid nucleation score": "2.18 ± 0.071"}, {"substance": "QSCCKQQILYHRGQTRHQ", "amyloid nucleation score": "inactive"}, {"substance": "NLPNGMFKIHVDG", "amyloid nucleation score": "inactive"}, {"substance": "RRWPTPVCFNEG", "amyloid nucleation score": "inactive"}, {"substance": "CLFFKHLLLGDDVLLLTYLR", "amyloid nucleation score": "inactive"}, {"substance": "ACSLAFLHICHRHF", "amyloid nucleation score": "0.712 ± 0.39"}, {"substance": "VSPVGSSRWWHDLHVSLETS", "amyloid nucleation score": "inactive"}, {"substance": "VCVSVRDTCGLCLLVYDNTV", "amyloid nucleation score": "2.11 ± 0.079"}, {"substance": "NLSSSDTRSVCASWVTR", "amyloid nucleation score": "inactive"}, {"substance": "SVGRSST", "amyloid nucleation score": "inactive"}, {"substance": "IRVTRIRAKVTLTTNVMWVP", "amyloid nucleation score": "0.463 ± 0.29"}, {"substance": "HEVCS", "amyloid nucleation score": "inactive"}, {"substance": "CATIILSCILSL", "amyloid nucleation score": "1.14 ± 0.13"}, {"substance": "STTFDLARWASVKSVHFCYF", "amyloid nucleation score": "inactive"}, {"substance": "TSVTSTSLSGSLSAV", "amyloid nucleation score": "inactive"}, {"substance": "TIYCWTQNIHDY", "amyloid nucleation score": "2.3 ± 0.086"}, {"substance": "VTRSDGTTISYNISIKLGKG", "amyloid nucleation score": "2.2 ± 0.071"}, {"substance": "YTGYWTGLYYVFMEINGWGS", "amyloid nucleation score": "inactive"}, {"substance": "SEDDC", "amyloid nucleation score": "inactive"}]}]}
